# Laboratory results from the DeepSol protein solubility set.
# Assay: soluble on expression in E. coli; label from the status in PepcDB or PDB records
row,Sequence,soluble on expression in E. coli
1,MTARPDTAIVLAAGLGKRMRPITDTIPKPLVRIAGKTLLDWGLDSLAAAGVAKAVVNVHYLPEQIVAHVAARSAPRIVISDESDRLLDSAGGIVKALPELGEQPFYILNADTFWIDHGPLNLGRLALAWDAAKMDILLMLADLHQATGHCGSTDFLVAPDGALRRSKGDPAGLIYAGAAIIHPRLFKDASAEPHSLNAYFDKAIAAGRLFGMPMHGHWITVGTPDAIPLAEEAVAGALAEMQLEHHHHHH,not soluble
2,MEITLNSGFKMPIIGLGVWRMEKEELRDLIIDAIKIGYRHLDCAANYKNEAEVGEALTEAFTTGLVKREDLFITTKLWSSDHGHVIEACKDSLKKLQLDYLDLFLVHIPIATKHTGIGTTDSALGDDGVLDIDTTISLETTWHDMEKLVSMGLVRSIGISNYDVFLTRDCLAYSKIKPAVNQIETHPYFQRDSLVKFCQKHGICVTAHTPLGGATANAEWFGTVSCLDDPVLKDVAEKYKQTVAQIVLRWGIQRNTVVIPKTSKPERLEENFQVFDFQLSKEDMEVIKSMERNYRTHQTAKFWGIELYA,soluble
3,GSHMRLDKFIAQQLGVSRAIAGREIRGNRVTVDGEIVRNAAFKLLPEHDVAYDGNPLAQQHGPRYFMLNKPQGYVCSTDDPDHPTVLYFLDEPVAWKLHAAGRLDIDTTGLVLMTDDGQWSHRITSPRHHCEKTYLVTLESPVADDTAEQFAKGVQLHNEKDLTKPAVLEVITPTQVRLTISEGRYHQVKRMFAAVGNHVVELHRERIGGITLDADLAPGEYRPLTEEEIASVV,soluble
4,MSISWSMSRNMFKLAHISDVHLGPLPRLSIQELFSKRITGFVNWHRNRRKHLFASTLDLLLDDIRTHRADHLAVTGDLVNLASGIEIRAAAAWLRALGDPADTSVVPGNHDAYVPGAYEKSMRAWYDYVRGDLAPPQWQEDRRIFPYLRVRDKVAIVGCSTAVATPPFAASGFFSARQARDTVNMLRAAGEAGLFRVVMIHHPPIRGATAFHKRMIGIRRFAAVISTGGAELVLHGHTHLNTLHWLRGQVQPVPVVGIASASQGPGSIKPPAAYNLFSIDGAPGAWELTGERFSLNRTGDAMMPESVDIFAPLEHHHHHH,not soluble
5,GSADAEYDVVVLGGGPGGYSAAFAAADEGLKVAIVERYKTLGGVCLNVGCIPSKALLHNAAVIDEVRHLAANGIKYPEPELDIDMLRAYKDGVVSRLTGGLAGMAKSRKVDVIQGDGQFLDPHHLEVSLTAGDAYEQAAPTGEKKIVAFKNCIIAAGSRVTKLPFIPEDPRIIDSSGALALKEVPGKLLIIGGGIIGLEMGTVYSTLGSRLDVVEMMDGLMQGADRDLVKVWQKQNEYRFDNIMVNTKTVAVEPKEDGVYVTFEGANAPKEPQRYDAVLVAAGRAPNGKLISAEKAGVAVTDRGFIEVDKQMRTNVPHIYAIGDIVGQPMLAHKAVHEGHVAAENCAGHKAYFDARVIPGVAYTSPEVAWVGETELSAKASARKITKANFPWAASGRAIANGCDKPFTKLIFDAETGRIIGGGIVGPNGGDMIGEVCLAIEMGCDAADIGKTIHPHPTLGESIGMAAEVALGTCTDLPPQKK,soluble
6,MQITTVNVNGIRAAVKQRSDANRGMLPWLEQCGSDVVLLQEVRASEKDSLTALAPALDAGWHYVGAPAAAKGRAGVGILSRQPLRDVQVGLEGFVDSGRYIQATLSDPDTGHDVVVASLYLPSGSADTDKQDEKYRFLDVFGPFLEQAAQDNPHMVVGGDWNICHRMQDLKNWKTNRKKSGFLPDERAFMDSVFGVFPDSESQVSDAGQWAGAVDYTSQQRRTPANDPKWFDVARRLAPEDAAYTWWTYRGQAFDTNAGWRIDYQAATSAMLERATRCWVDKAAAYDLRWSDHSPLTVVYS,soluble
7,MHQAPATSTDENPPIESDVPMHHVYPSHHHHQHYQLPHLQQHPHPYSYPLYTFPYPIAPAFHQAQNPPMTSSVASGANGEHHHQPQQFFAPQYQVIPAGAIPVSTINIDPSQICPVDQMGMWTLPPPTGPNGMRYGIPIPAPLVPQITSSIMEASKMTSSTHTNATILNAMTASTSSNDSSSESGVSGVKEAKDEKKKSKIQADEKLRHEERQSTSDYTDDDPIPFTSRRSITGSVSYNYAEQIAERRRVEQQQEDRERQEMLEVERQRRVLEDRRNSEEEIRKQAELDRVEKDRLRMEQAAAAMEKARKEAELAKRARIYKHVFRGAEEEGGTEQLEELEQKILGVDIETGRRLLKEVSEVEWHKKQDEAEIRKNAPPQSDRSAHNLSSLSSGNQSARGRSSSISSPCKPDTSFTRNSIGRRSVRTTSREKQQESPKSSDQAVQHPLAASTPVRRPPRQPQALPTQDEIHVAREVPLANKSTTPSPTRSEMLRSAAIYCPINRDPLSQREELRAINRSTSNTGAYHNNNNNNNSKFEGAGVSRYNEITQTALFGPIATRNSIRRGTMRGTGLPSPPSVRVSTQNHQNQQRTSSFDESSSGGEEGGSISPDLGHKNFESPLPSSTENVHPASNSPPMKQIEGFEFKTPTRARSALSSPMSNFMNGGDNDSPISRPASRLMQRLEQKGTIRRDDEIISQEIRRVAETNLSRSPSLASLRGSMSNLAFRASQLNLAGTSGELPPNLTKFASVNSPARQSLSSMKKTTDRQAAVLERLGRLRESLHAGKNYTPPRNGISSSSRITTPAQTPPISPRPVM,not soluble
8,MNFLSEQLLAHLNKEQQEAVRTTEGPLLIMAGAGSGKTRVLTHRIAYLMAEKHVAPWNILAITFTNKAAREMRERVQSLLGGAAEDVWISTFHSMCVRILRRDIDRIGINRNFSILDPTDQLSVMKTILKEKNIDPKKFEPRTILGTISAAKNELLPPEQFAKRASTYYEKVVSDVYQEYQQRLLRNHSLDFDDLIMTTIQLFDRVPDVLHYYQYKFQYIHIDEYQDTNRAQYTLVKKLAERFQNICAVGDADQSIYRWRGADIQNILSFERDYPNAKVILLEQNYRSTKRILQAANEVIEHNVNRKPKRIWTENPEGKPILYYEAMNEADEAQFVAGRIREAVERGERRYRDFAVLYRTNAQSRVMEEMLLKANIPYQIVGGLKFYDRKEIKDILAYLRVIANPDDDLSLLRIINVPKRGIGASTIDKLVRYAADHELSLFEALGELEMIGLGAKAAGALAAFRSQLEQWTQLQEYVSVTELVEEVLDKSGYREMLKAERTIEAQSRLENLDEFLSVTKHFENVSDDKSLIAFLTDLALISDLDELDGTEQAAEGDAVMLMTLHAAKGLEFPVVFLIGMEEGIFPHNRSLEDDDEMEEERRLAYVGITRAEEELVLTSAQMRTLFGNIQMDPPSRFLNEIPAHLLETASRRQAGASRPAVSRPQASGAVGSWKVGDRANHRKWGIGTVVSVRGGGDDQELDIAFPSPIGIKRLLAKFAPIEKV,soluble
9,SLPWTVRTETCRMPFRIDPKKPFGDEIRRAGLELIDDAVTILRDQPSGSHEAVHDARKRFKRLRALYRLIRKVAPDFAREENTRFRDIARSLAFARDATALVETAEYLEAFAASDTQGEALRSVTVMLRERRDDALDHEAGLDEAIAAAIAGCEKGRERLEDLSLPDDLNKTARLVRTGWAKQRVKARKALSCCREQADVEHFHELRKAGQTYWMHLGLMRRLWPSAMRAKRADTKRLVDILGHEHDLSVLTAVADREPDRFGNGERLALLLAAIIERQQALRAEGLVLADEVFSESARTESRIVGLLWRQAAK,not soluble
10,VRRVPLFENMDERLLDAICERLKPCLFTEKSYLVREGDPVNEMLFIIRGRLESVTTDGGRSGFYNRSLLKEGDFCGDELLTWALDPKSGSNLPSSTRTVKALTEVEAFALIADELKFVASQFRR,soluble
11,MSLIAIYVRVSTEEQAIKGSSIDSQIEACIKKAGTKDVLKYADEGFSGELLERPALNRLREDASKGLISQVICYDPDRLSRKLMNQLIIDDELRKRNIPLIFVNGEYANSPEGQLFFAMRGAISEFEKAKIKERTSSGRLQKMKKGMIIKDSKLYGYKFVKEKRTLEILEEEAKIIRMIFNYFTDHKSPFFGRVNGIALHLTQMGVKTKKGAKVWHRQVVRQILMNSSYKGEHRQYKYDTEGSYVSKQAGNKSIIKIRPEEEQITVTIPAIVPAEQWDYAQELLGQSKREGHHHHHH,soluble
12,MSDEREVAEAATGEDASSPPPKTEAASDPQHPAASEGAAAAAASPPLLRCLVLTGFGGYDKVKLQSRPAAPPAPGPGQLTLRLRACGLNFADLMARQGLYDRLPPLPVTPGMEGAGVVIAVGEGVSDRKAGDRVMVLNRSGMWQEEVTVPSVQTFLIPEAMTFEEAAALLVNYITAYMVLFDFGNLQPGHSVLVHMAAGGVGMAAVQLCRTVENVTVFGTASASKHEALKENGVTHPIDYHTTDYVDEIKKISPKGVDIVMDPLGGSDTAKGYNLLKPMGKVVTYGMANLLTGPKRNLMALARTWWNQFSVTALQLLQANRAVCGFHLGYLDGEVELVSGVVARLLALYNQGHIKPHIDSVWPFEKVADAMKQMQEKKNVGKVLLVPGPEKEN,soluble
